# Data: the supplement of paper PMC10126150
# ± gives the standard deviation of the averaged measurements.
# Tested on: ATP
# Experiment: switch fluorescence ratio, 500 uM ATP over buffer (Cy3 cluster intensity, sum of 5 cycles each) (fold (ratio)); higher = stronger signal-on switching upon ATP binding; sequences stand for … in TCGTCGGCAGCGTCAGATGTGTATAAGAGACAGTTTTTTTTTTTTTTTTTTTTTTTTT…TC
# Conditions: aptamer strand: ATP DNA aptamer (quencher-CACCTGGGGGAGTATTGCGGAGGAAGG + anchor), 100 nM annealed; ATP concentration: 500 uM
# In short: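 After annealing to 100 nM quencher-labelled ATP aptamer, Cy3-labelled switching-strand clusters on a modified Illumina MiSeq flow-cell were imaged in selection buffer. A second image followed after 15 min with 500 uM ATP at 22 °C, and five such buffer/ATP cycles were done, each separated by NaOH stripping and re-annealing. The fluorescence ratio, averaged per switch-domain sequence, is summed target-cycle over summed buffer-cycle Cy3 intensity per cluster, with clusters outside 100-1000 RFU excluded.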
# 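Also: ATP exposure 15 min at 22 °C before imaging.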
row,Sequence,switch fluorescence ratio
1,TTACGAAGTT,1 ± 0.019
2,TTACGCATTT,1.12 ± 0.08
3,TTACGCCGAC,1.14 ± 0.15
4,TTACGCTCAT,2.79 ± 0.61
5,TTACGGGCGG,1.03 ± 0.078
6,TTACGGGGAC,1.08 ± 0.089
7,TTACGGGTGG,1.01 ± 0.044
8,TTACGGTCCA,1.05 ± 0.017
9,TTACGGTGGT,1.03 ± 0.036
10,TTACGGTTT,1 ± 0.025
11,TTACGTTGGG,0.997 ± 0.035
12,TTACTAAGGT,1.063 ± 0.01
13,TTACTACGGC,1.09 ± 0.021
14,TTACTAGGCG,1.01 ± 0.053
15,TTACTATATG,1.03 ± 0.018
16,TTACTATTGG,0.978 ± 0.013
17,TTACTCGCTG,1.07 ± 0.027
18,TTACTCTTCG,1.062 ± 0.0074
19,TTACTGGACG,1.07 ± 0.058
20,TTACTGGAG,1.02 ± 0.06
21,TTACTGGATA,0.987 ± 0.046
22,TTACTGGGTT,1 ± 0.084
23,TTACTGTAAT,1.18 ± 0.037
24,TTACTGTTAC,1.32 ± 0.083
25,TTACTTACTT,1.28 ± 0.081

row,Sequence,switch fluorescence ratio
1,TTACTTAGGT,1.03 ± 0.068
2,TTAGAAAAGA,1 ± 0.033
3,TTAGAACTCT,1.01 ± 0.014
4,TTAGAAGACT,1.08 ± 0.08
5,TTAGACATTT,1.01 ± 0.026
6,TTAGAGGCTG,0.912 ± 0.15
7,TTAGAGGTTA,0.98609 ± 0.00054
8,TTAGAGGTTT,0.971 ± 0.038
9,TTAGAGTCTG,1.005 ± 0.01
10,TTAGATACAT,1 ± 0.019
11,TTAGATAGGT,1.02 ± 0.062
12,TTAGATATAT,0.996 ± 0.036
13,TTAGATTGTG,0.978 ± 0.03
14,TTAGCATAAA,1.04 ± 0.024
15,TTAGCCAGCT,0.96986 ± 0.00044
16,TTAGGAGGGG,1.03 ± 0.11
17,TTAGGATGTA,1.005 ± 0.0095
18,TTAGGATGTG,0.984 ± 0.022
19,TTAGGCGGGC,1.02 ± 0.027
20,TTAGGCGTAT,0.989 ± 0.041
21,TTAGGCTGTG,0.986 ± 0.03
22,TTAGGGAACA,1.16 ± 0.16
23,TTAGGGATAC,1.88 ± 0.88
24,TTAGGGCAGG,1.06 ± 0.058
25,TTAGGGCGAC,1 ± 0.044

row,Sequence,switch fluorescence ratio
1,TTAGGGCTCG,1.01 ± 0.057
2,TTAGGGGCAG,0.981 ± 0.034
3,TTAGGGGGGT,1.05 ± 0.15
4,TTAGGGTATT,1.02 ± 0.028
5,TTAGGGTCT,1.01 ± 0.022
6,TTAGGGTGGG,1.01 ± 0.053
7,TTAGGTAGTG,0.9667 ± 0.0047
8,TTAGGTCGGT,1.01 ± 0.0094
9,TTAGGTTAGA,0.993 ± 0.014
10,TTAGGTTTAA,1.02 ± 0.021
11,TTAGGTTTAT,0.986 ± 0.013
12,TTAGGTTTCT,1 ± 0.011
13,TTAGGTTTGC,1 ± 0.032
14,TTAGTAATAT,1.17 ± 0.12
15,TTAGTACCAT,1.01 ± 0.028
16,TTAGTACTGA,1.05 ± 0.035
17,TTAGTAGGGT,0.983 ± 0.04
18,TTAGTAGGTC,0.992 ± 0.047
19,TTAGTAGTGT,0.973 ± 0.0063
20,TTAGTATGCT,0.9864 ± 0.0082
21,TTAGTCGTGC,1.01 ± 0.026
22,TTAGTCTGAT,1 ± 0.038
23,TTAGTCTGTT,0.99 ± 0.022
24,TTAGTGAAGG,1.01 ± 0.023
25,TTAGTGGAAT,0.9552 ± 0.0073

row,Sequence,switch fluorescence ratio
1,TTAGTGGGGA,1.01 ± 0.039
2,TTAGTGGTAC,1.15 ± 0.044
3,TTAGTGTAAT,1.01 ± 0.025
4,TTAGTGTATC,0.982 ± 0.059
5,TTAGTGTCTT,0.976 ± 0.025
6,TTAGTTGGAT,1.04 ± 0.029
7,TTAGTTGGGA,0.9828 ± 0.0087
8,TTAGTTTCGG,1.01 ± 0.019
9,TTAGTTTTAT,1 ± 0.027
10,TTAGTTTTTC,1.01 ± 0.032
11,TTATAAACCT,1.99 ± 1.4
12,TTATAAGGG,0.9843 ± 0.0022
13,TTATAAGTAG,1.01 ± 0.02
14,TTATAATGTG,1.009 ± 0.01
15,TTATAATTAG,0.994 ± 0.046
16,TTATAATTGA,1.02 ± 0.031
17,TTATAATTTT,0.965 ± 0.044
18,TTATACACAT,1.06 ± 0.023
19,TTATACAGGA,1.019 ± 0.0057
20,TTATACCTTA,1.065 ± 0.0043
21,TTATACGGCT,1.11 ± 0.092
22,TTATACGTAT,1.04 ± 0.037
23,TTATAGGGAC,1 ± 0.015
24,TTATAGGGGT,1.09 ± 0.057
25,TTATAGGTAT,0.9803 ± 0.0054
